From publication PMC10976963

Target: actin of the cytoskeleton of living U2OS cells (human (endogenous in U2OS)) (UniProt P60709)
Test: FRAP; fluorescence recovery after photobleaching at lamellipodia of living U2OS cells expressing mEGFP-DARPins or mCherry-LifeAct, 37 °C, single-exponential fit

Substance mCherry-LifeAct (peptide) has an FRAP half-recovery time (τ1/2) at lamellipodia of 0.47 s.
